Results on two molecules are retold here after patent publication CN117327177A (dated 2024).

Assay [1] deals with 脂联素抗原(购自HYTEST，8AN7) (UniProt Q15848). Nature of the assay: indirect ELISA, adiponectin coated at 0.5 ug/ml, antibody at 0.39 ng/ml.
The target is the same in assay [2]. Nature of the assay: BLI, antibody captured on AMC sensor, adiponectin antigen in gradient dilution in PBST. Background: BLI is a label-free optical method that tracks binding on a fibre tip over time.
For assay [3] the target is unchanged. Nature of the assay: indirect ELISA, adiponectin coated at 0.5 ug/ml, antibody at 0 ng/ml (blank).
Assay [4] shares this target. Kind of assay: indirect ELISA, adiponectin coated at 0.5 ug/ml, antibody at 6.25 ng/ml.
The target is the same in assay [5]. Nature of the assay: indirect ELISA, adiponectin coated at 0.5 ug/ml, antibody at 0.78 ng/ml.
Assay [6] has the same target. Nature of the assay: indirect ELISA, adiponectin coated at 0.5 ug/ml, antibody at 3.13 ng/ml. (In an ELISA, binding on a coated surface is turned into a signal by an enzyme label.)
The target is the same in assay [7]. Kind of assay: indirect ELISA, adiponectin coated at 0.5 ug/ml, antibody at 1.56 ng/ml.
Another assay deals with T1, Adiponectin (human, UniProt Q15848).
T1 chain: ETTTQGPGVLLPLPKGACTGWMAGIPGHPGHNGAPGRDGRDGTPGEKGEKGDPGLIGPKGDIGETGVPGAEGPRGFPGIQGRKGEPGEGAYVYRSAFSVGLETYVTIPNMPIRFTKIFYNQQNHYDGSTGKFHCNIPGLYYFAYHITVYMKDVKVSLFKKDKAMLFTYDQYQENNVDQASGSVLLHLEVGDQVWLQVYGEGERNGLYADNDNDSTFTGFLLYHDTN
Nature of the assay: BLI.

For orientation: Kd means a measure of binding affinity in units of concentration. A higher Kd goes with a looser complex. In general, koff refers to the rate constant with which the complex falls apart. Read a low koff as a long-lived complex. By kon is commonly meant the rate constant with which the complex forms.

With 对照 (antibody), the OD450 (ref 630 nm) with 脂联素抗原(购自HYTEST，8AN7) [1] amounted to 0.261 OD; with 脂联素抗原(购自HYTEST，8AN7) [3], 0.055 OD; with 脂联素抗原(购自HYTEST，8AN7) [4], 1.8 OD; in the assay with 脂联素抗原(购自HYTEST，8AN7) [5], 0.451 OD; in the assay with 脂联素抗原(购自HYTEST，8AN7) [6], 1.43 OD; with 脂联素抗原(购自HYTEST，8AN7) [7], 0.802 OD. In the assay with 脂联素抗原(购自HYTEST，8AN7) [2], the Kd was 87.1 nM. Moreover, in the assay with 脂联素抗原(购自HYTEST，8AN7) [2], the koff worked out at 0.00923 s⁻¹. For the same molecule, in the assay with 脂联素抗原(购自HYTEST，8AN7) [2], the kon was 106000 M⁻¹ s⁻¹.

B1: Anti-APN 6C2mut1 (antibody, V domains shown)
VH: EVQLQQSGPELVKPGASVKMSCKASGYSFTGYFINWVKQSHGKSLEWIGRINPYNGDTFYNEKFKGKATFTADISSSAAHMELLSLTSEDSAVYYCGRGGGLQRPYFDYWGQGTTLTVSP
VL: DIQMTQSSSYLSVSLGGRVTITCKASDHVNNWLAWYQQKPGNAPRLLISGATNLETGVPSRFSGSGSGKDYTLTITSVQTEDVATYYCQQYWISALTFGAGTKLELN
For B1, the OD450 (ref 630 nm) was found to be 1.02 OD with 脂联素抗原(购自HYTEST，8AN7) [1]; 0.074 OD with 脂联素抗原(购自HYTEST，8AN7) [3]; 2.33 OD in the assay with 脂联素抗原(购自HYTEST，8AN7) [4]; 1.79 OD with 脂联素抗原(购自HYTEST，8AN7) [5]; 2.26 OD with 脂联素抗原(购自HYTEST，8AN7) [6]; 2.06 OD with 脂联素抗原(购自HYTEST，8AN7) [7]. In the assay with 脂联素抗原(购自HYTEST，8AN7) [2], the koff amounted to 0.00209 s⁻¹. Also, the kon in the assay with 脂联素抗原(购自HYTEST，8AN7) [2] came to 5.58e+06 M⁻¹ s⁻¹. This molecule showed a Kd in the assay with Adiponectin of 0.374 nM.
